Read-outs that look alike come from different tables or passages of the source.

The target in test [1] is GRAB CRF1.0 sensor (human (GPCR scaffold cDNA)). Nature of the test: other fluorescence titration.
For test [2] the target is unchanged. In words: other fluorescence titration. The source holds these as a separate data set.

Broadly, the EC50 is the concentration that produces a half-maximal response. Take SEEPPISLDLTFHLLREVLEMARAEQLAQQAHSNRKLMEIIGK [corticotropin-releasing factor (CRF)]: the results for the EC50 in test [1] and in test [2] were 18.6 nM and 33 nM, respectively. DNPSLSIDLTFHLLRTLLELARTQSQRERAEQNRIIFDSVGK [urocortin 1 (UCN1)] registered an EC50 in test [2] of 69 nM.

Values taken from PMC11205257.
